Measured values published in CN110885376A (SHANGHAI NOVAMAB BIOPHARMACEUTICALS CO LTD, dated 2020).

Target: T1, CD20 (UniProt P11836 1-297, limits assumed)
T1 construct: whole, on cells; Endogenous CD20 of Raji cells; also called 白细胞分化抗原20; 细胞表面CD20
T1 sequence (looked up): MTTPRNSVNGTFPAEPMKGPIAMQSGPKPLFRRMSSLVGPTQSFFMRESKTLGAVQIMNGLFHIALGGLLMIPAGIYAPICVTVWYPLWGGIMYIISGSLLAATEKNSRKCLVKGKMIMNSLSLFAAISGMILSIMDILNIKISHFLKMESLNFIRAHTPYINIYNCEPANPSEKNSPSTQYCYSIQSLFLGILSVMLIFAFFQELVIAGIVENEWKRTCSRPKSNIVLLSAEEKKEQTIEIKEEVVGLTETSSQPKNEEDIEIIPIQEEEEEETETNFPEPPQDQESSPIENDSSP
Test: flow cytometry on Raji cells (CD47 first blocked with Nb1902), anti-hFc-FITC

B1: 利妥昔单抗 (antibody, human IgG1, kappa, L234A L235A, V domains shown)
VH: QVQLQQPGAELVKPGASVKMSCKASGYTFTSYNMHWVKQTPGRGLEWIGAIYPGNGDTSYNQKFKGKATLTADKSSSTAYMQLSSLTSEDSAVYYCARSTYYGGDWYFNVWGAGTTVTVSA
VL: QIVLSQSPAILSASPGEKVTMTCRASSSVSYIHWFQQKPGSSPKPWIYATSNLASGVPVRFSGSGSGTSYSLTISRVEAEDAATYYCQQWTSNPPTFGGGTKLEIKR
notes: also called 对照抗体利妥昔; rituximab
  EC50: 5.67 µg/mL
